Laboratory results published in the nanobody polyreactivity screen of Harvey et al. (2022).

Assay: yeast display, Sf9 membrane polyspecificity reagent, FACS + sequencing; frameworks hold sequencing errors
Procedure, shortened: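 Polyreactivity labels are assigned by the sorting gate from which each nanobody was recovered. The gates were low and high (top ~1%), set on anti-HA fluorescence for expression and streptavidin fluorescence for reagent binding. Before sorting, galactose-induced (36–48 hours) yeast display cells were stained for 1 hour at 4 °C with 10% biotinylated, detergent-solubilized Sf9 membrane reagent.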

Sequence	polyreactivity (PSR sort gate)
QVHLQESGGVQAGGSLPQSCAASGNISRSDVMGWYRQAPPKERELVATINNGTITYYADSVKGRFTISRDHAKNTVYLHMNSLKQEDTAVQYCAVVQSDTDSLYYWGQGTQVTVSS	low polyreactivity
QVHLQESGSGLVQAGGSLRLSCAASGAIFPAYLMGWYRQAPGKERELVAGSSYGSITYCADSVKGRFNISRDNAKNTVYLQMNSLKPEDTAVYYCAVLRPGGDEYYYWGQGTKVTVSS	low polyreactivity
QVHLVDSGGGLVQAGGSLRLSCAASGSIIVFYAMGWYRQAPGKERELVAAITDSGSTNYADSVKGRFTISRDNAKNTVYLQMNSLKPEDTAVYYCDWSYYVLRRYRVARYDSGGQGTQVTVSS	low polyreactivity
QVHLVDSGGGLVQAGGSLRLSCAATGFTFWYYAMGWYRQAPWKERELVATITWNGGSTYYADSVKGRFTISRDNAKNTVYIQMNSLQPEDTAVYYCNKSYISSSSWQYYYWGQGTQVTVSS	low polyreactivity
QVHLVDSGGGLVQAGGSLRLSSADSGSTFAANAIGWYRQAPGKERELVAAITSSGGSTYYADSVKGRFTISRDNATNTVYLQKNSLKPEDTAVYYCNKDMERYVRIYDSWGQGSQVTVSS	low polyreactivity
QVHLVDSGGGLVQAGGSLRLTCAASGSSFWAYVMGWYRQAPGKERELVAAISKSGVRTHYADSVKGRFTISRDNAKTTFYLQMNSLKPEDTAVYYFAAVGFGNLDDYWGQGTQVTVSS	high polyreactivity
QVHLVDSRGVLVQAGGSLRLSCAASGRTFFHYAMGWYRQAPGKERELVAAITYRGTSTYYADSVKARFTISRDYAKNTVYLQMNSLKPEATAVYYCNAYTTRGGWSYRGDSWGQGTQVTVSS	high polyreactivity
QVHLVEAGGGLVQAGGSLRLSCAASACTFWPYARGLSSQAPGQDTELVAAMTSSGSTNYADSVKGRFTITRDNAKNTDYLQMNSLKPEDTAVNYCAADHRPSRFQSSVHLYYYWGQGTQVTVSS	low polyreactivity
QVHLVESAGGLVQAGGSLRLSSDSSGLIFYRYAMGWYRQAPGKERELVAAITSRSGRTYYADSVKGRFTFSRDNAKNTVYLQMNSLKPEDTAVYYCNAEWRSRYDYWGQGNQVTVSS	high polyreactivity
QVHLVESCGGLVQAGGSLRLSCAASGFTFYTYTMGWYRQAPGKERELVAVISRSGGSTYYADSVKGRFTISRDNAKNTVYLQMNSLKPEDTAVYYCNAGYWRFIDSYDYWGQGTQVTVSS	high polyreactivity
QVHLVESCGGLVQAGGSLRLSCAASGSTFTYNVMGSYRQAPGKERELVAAISWSGGSTFYADSVKGRFTISRDNAKNTVYLQMNSLKPEDTAVYYCNKDHLVYPSEFYYWGQGTQVTVSS	low polyreactivity
QVHLVESCGGLVQAGGSLRLSCAASGSTIETYAMGWNRQAPGKDREMVATISLSGGRTYYADSVKGRFTISRDYAKNTVYLQMNSLKPEDTEVYYCNADGYGNVGGGDSWGQGTQVTVSS	low polyreactivity
QVHLVESGAGLDQAGGSLSLSCAASGRNFSFNAMGSYRQAPGKVRELVASIRSGGSTNYADSVKGRFTISSDNAKNTVYLQMNSLKPEDTAVYYCAKRSTYWGWSSYGMDHWGQGTQVTVSS	high polyreactivity
QVHLVESGAGLVQAGGSLRLSCAASGRVFYYYAMGWYRQAPGKEREFVATISWSGVRTYYADSVKGRFTISRDNAKNTVYLQMNSLKPEDTAVYYCNADYYSPKFPSGMNYWGQGTQVTVSS	high polyreactivity
QVHLVESGAGLVQAGGSLRLSCAASGSTFAPNAMGWYRQAPGKERELVAAISSGGDSTNYADSVKGRFTISRDNAKNTVYLQMNSLKPEDTEVYYCAHGYWFVAYDYWGEGTQVTVSS	low polyreactivity
QVHLVESGAGLVQAGGSLSLSCAASVFTLHVYALGWYRQAPGKERELVAALSTGGNTNYADSVKGRFTISRDNAKNTVYLQMHSLKPEDTAVYYCAASNRGATRRQVNYWGQGTQVTVSS	high polyreactivity
QVHLVESGGALVQAGGSLRLSCAASGFIFRKYAMGWYRQAPGKERELVAAISYRGASTYYADSVKGRFTISRDNAKNTVYLQMNSLKPEDTAVYYCADRYSNPWARVSGYDYWGQGTQVTVSS	high polyreactivity
QVHLVESGGGIVQAGGSHRLSCAATGRIFAPYAMGWYRQAPGKERELVAAISWSDVSTDYADSVKGRFTISRDNAKNTVYLQMNSLKPEDTAVSYCAAAYPGYRGWYYYWGQGTQVTVSS	high polyreactivity
QVHLVESGGGIVQAGGSLRLSCAASGFTFQYNAMGWYRQAPGKERELVAAISYSGTSTYYADSVKGRFTISRDNPKNTVSLQKNSLKPEETAVYYCAVPRLSGSPSAYGYYYWGQGTQVTVSS	high polyreactivity
QVHLVESGGGIVQAGGSLRLSCAASGFTFTQYGMGWYRQAPGKEREFVATIRFSGDNTYYADSVKGRFTISRDNAKNTVYLQMNSLNPEDTAVYYCNADNRAFFVYPVSKRYDYWGQGTQVTVSS	low polyreactivity
QVHLVESGGGIVQAGGSLRLSCAASGIIFMDNAMGWYRQAPGKERELVAAITTGGITYYADSVKGRFTISRDNAKNTVYLQMNSLKPEDTAVYYCAADNEWPRYDYWGQGTQVTVSS	low polyreactivity
QVHLVESGGGIVQAGGSLRLSCAASGSTFGYYAMGWYRQAPGKERELVAAITTRGTRTYADSVKGRFTISRDNAKNTVYLQMNSLKPEDTAVYYCNAYEWGDFVLYTTDYDYWGQGTHVTVSS	high polyreactivity

Sequence	polyreactivity (PSR sort gate)
QVHLVESGGGLDQAGGSLRLSCAASGRTFKSYTMGWYRQAPGKEREFVAAISSRGGNTYYADSVKGRFTISRDNAKNTVYLQMNSLKPEDTAVYYCAAESSYWSFPTYDYWGQGTQVTVSS	high polyreactivity
QVHLVESGGGLDQAGGSLRLSSAASGFTFQKYAMGWYRQAPGTERELVAAISSSGGRTYYADSLNGRFTISRDNAKITVYLQMNSLKPEDTAVYYCAVRGSYRGWYDYWGQGTQVTVSS	high polyreactivity
QVHLVESGGGLLQAGGSLRLSCAASGRTSDSNAMGWYRQAPGKETELVAAITISGVSTYYADTVKGRFTISRDNAKNTVYLQMNSLKPEDTAVYYCAKDPTFSSSFAVSLGFDSWGQGTQVTVSS	low polyreactivity
QVHLVESGGGLVEAGGSLRISCAAYGFIFGYNAMGWYRQAPGKERELVARINSGGNTNYADSVKGRFTISRDNAKNTVYLQMNSLKPEDTAVYYCARDASNRYDYWGQGNQVTVSS	low polyreactivity
QVHLVESGGGLVHAGGSLRLSCAASGIIFSYYAMGWYRQAPVKERELVAAISRSGVRTYFSDSVKGRFTISRDNAKNTVYLQMNSLKPEDTSVYYCNAEFSPYPYDYWGQGTQVTVSS	high polyreactivity
QVHLVESGGGLVHAGGSLRLSCAASGSTFDYYAMGWYRQEHGKERELVAAISSGGSTYYADSVKGSFTISRDNPKNTVYLQMNSRKPEDTAVYYCAAVYRGQFSRYDYWGQGTQVTVSS	low polyreactivity
QVHLVESGGGLVHAGGSLRLSCAASGSTFSYYTMGWYRQAPGKERELVAAITRRGDSTYADSVKGRFTISRDNAKNTVYLQMNSLKPEDTAVYYCAADASVGVSGMDYWGQGTQVTVSS	low polyreactivity
QVHLVESGGGLVHAGGSLRVSCAASGYTFHRYAMGWYRQAPGKERELVAAITRGGGSTRYADSVKGRFTISRDNAKYTVYLQMNSLKPEDTAVYYCAAERRTPGRTTYYYWGQGTQVSVSS	high polyreactivity
QVHLVESGGGLVKAGGSLRLSCAASGLTFSYYARGWSRQPPGKEMELVAANSWSGGSTYYADSVKGRFTISRDNAKNTVYLQMNSLKPEDTAVYDCAVRPSDGVIFSKGYDHWGQGTQVTVSS	low polyreactivity
QVHLVESGGGLVKAGGSLRLSCAASGRIFYTYAMGWYRQAPGKERELVAAISRSGGRTYYADSVKGRFTISRDNGKNTVYLQMNSLKPEDNAVYYCNAVENWLFSSHDYWGQGTQVTVSS	low polyreactivity
QVHLVESGGGLVKAGGSLRLSCSASGSIFTYNAMGWYRQAPGKERELVAAISSRGTSTYYSDSVKGRFTISRDNAKNTVYLQMNSLKPEDTAVYYCAAVWVSQRRPWGNTNNYWGQGTQVTVSS	high polyreactivity
QVHLVESGGGLVLAGGSLRLSCAASGSTFGINAMGWYRQAPGKEREFVASISWSTGTTYYADSVKGRFTISRDNAKNTVYLQMNSLKPEDTAVYSCAAVDYYWGYEQWYDYWGQGTQVTVSS	high polyreactivity
QVHLVESGGGLVLAGGSLRLSCAASGSTLHLYAMGWYRQAPGKERELVADITSGGDTYYADSVKGRFTISRDNAKNTVYFQMNSLKPEDTAVYYCAAGPVYDWRGGALRYYYWGQGTQVSVSS	high polyreactivity
QVHLVESGGGLVPAGGSLRLTCAASGSTLWFNAMRWYRQAPGKERELVAAISFYSGSTYYSDSVKGRFTISRDNANNTVYLQMNSLKPEDTAVYYCAARRRWWGYDYWGQATQVTVSS	high polyreactivity
QVHLVESGGGLVQAAGSLRLSCAASGFIFYYYAMGWYRQAPGKERELVAAISRSGGRTYYADSVKGRFTISRDNAKNTVYLQMNSLKPEDTAVYYCAAPGYQTVGMGYWGQGTQVTVSS	high polyreactivity
QVHLVESGGGLVQAGASLRLSCAASGITFRFNAMGWYRQAPGKEREFVAAITYSGDSTYYADSVKGRFTISRDNAKNTVYLQMNSLKPEDTAVYYCAADYYAISRRMFYYWGQGTQVTVSS	low polyreactivity
QVHLVESGGGLVQAGGRLRLSCAASGFTFYKYAMGWYRQAPGKERELVAAITWSGGRTYYADSVKGRFTISRDNAKNTVYLQMNSLKPEDTAVYYCAADLHKLARYDYWGQGTQVTVSS	high polyreactivity
QVHLVESGGGLVQAGGSFRLSCAASGSIFDGYSMGWYRQAPGKERELVAAISYRVGRTYYADSVKGRFTISRDNAKNTVYLQMNSLKPEDTAVYYCAAGYYGNGVFEYDYWGQGTQVTVSS	low polyreactivity
QVHLVESGGGLVQAGGSHRLSCAASGRIFRGYAMGWYIQAPGKERELVAAISGRGGRTYYADSVKGRFTISRDNAKNTVYLQMNSLKPEDTAVYYCNARRGRRGYYGNGDYWGQGTQVTVSS	high polyreactivity
QVHLVESGGGLVQAGGSHRLSCAASGRTFDNYAMGWYRQAPGKERELVAAISRRGGSTYYADSVKGRFTISRDNAKNTVYLQMNSLKPEDTAVYYCAADRLVWKPTVVGFYYWGQGTQVTVSS	high polyreactivity
QVHLVESGGGLVQAGGSIRLSCAASGRTLDPYTMGWYRQAPGKERELVAAITSSGGRTTYADSVKGRFTISRDNAKITVYLQMNSLKPEDTAVYYCAKKFRPVYRSQYLRYSWGQGTQVTVSS	low polyreactivity
